The test concerns the target N74D HIV-1 CA-NC complexes (HIV-1). The experiment in a line: co-sedimentation.

The substance “human CPSF6-358 (C-terminally truncated CPSF6), HA-tagged (from UniProt Q16630-2 1-358) (domain or fragment)” gave a fold difference in co-purification, wild-type over N74D CA-NC of 3.9 fold.

In turn, “rhesus TRIM5alpha, HA-tagged (from UniProt Q0PF16 1-497) (natural protein)” came in with a fold more precipitated than by wild-type CA-NC complexes of 2 fold.
